± gives the uncertainty stated by the source.

A short description of this data set: abundance fitness (aPCA) (normalised: wild type 0, dead -1); higher = more abundant; growth selection in yeast, the domain comes from the species named. The settings on record: Homo sapiens.
“E3 ubiquitin-protein ligase NEDD4-like H186F, Q96PU5” showed an abundance fitness of -0.111 ± 0.12.

With “E3 ubiquitin-protein ligase NEDD4-like H186G, Q96PU5”, the abundance fitness was -0.461 ± 0.067.

In turn, “E3 ubiquitin-protein ligase NEDD4-like H186I, Q96PU5” showed an abundance fitness of 0.086 ± 0.12.

Turning to “E3 ubiquitin-protein ligase NEDD4-like H186K, Q96PU5”, the abundance fitness is -0.222 ± 0.079.

“E3 ubiquitin-protein ligase NEDD4-like H186L, Q96PU5” returned an abundance fitness of -0.185 ± 0.074.

As for “E3 ubiquitin-protein ligase NEDD4-like H186M, Q96PU5”, the abundance fitness is -0.349 ± 0.1.

“E3 ubiquitin-protein ligase NEDD4-like H186N, Q96PU5” gave an abundance fitness of -0.123 ± 0.13.

“E3 ubiquitin-protein ligase NEDD4-like H186P, Q96PU5” gave an abundance fitness of -0.292 ± 0.081.

As to “E3 ubiquitin-protein ligase NEDD4-like H186Q, Q96PU5”, the abundance fitness is -0.511 ± 0.1.

The substance “E3 ubiquitin-protein ligase NEDD4-like H186R, Q96PU5” gave an abundance fitness of -0.59 ± 0.061.

As to “E3 ubiquitin-protein ligase NEDD4-like H186S, Q96PU5”, the abundance fitness is -0.185 ± 0.076.

Substance “E3 ubiquitin-protein ligase NEDD4-like H186T, Q96PU5” yielded an abundance fitness of -0.288 ± 0.11.

Turning to “E3 ubiquitin-protein ligase NEDD4-like H186V, Q96PU5”, the abundance fitness was -0.045 ± 0.058.

For the substance “E3 ubiquitin-protein ligase NEDD4-like H186W, Q96PU5”, the abundance fitness is -1.24 ± 0.064.

Consider “E3 ubiquitin-protein ligase NEDD4-like H186Y, Q96PU5”, for which the abundance fitness is -0.095 ± 0.12.

The substance “E3 ubiquitin-protein ligase NEDD4-like H214F, Q96PU5” yielded an abundance fitness of -0.07 ± 0.1.

“E3 ubiquitin-protein ligase NEDD4-like H214I, Q96PU5” returned an abundance fitness of -0.005 ± 0.078.

As for “E3 ubiquitin-protein ligase NEDD4-like H214K, Q96PU5”, the abundance fitness stood at 0.032 ± 0.081.

“E3 ubiquitin-protein ligase NEDD4-like H214L, Q96PU5” came in with an abundance fitness of -0.05 ± 0.051.

“E3 ubiquitin-protein ligase NEDD4-like H214M, Q96PU5” came in with an abundance fitness of 0.011 ± 0.083.

The substance “E3 ubiquitin-protein ligase NEDD4-like H214N, Q96PU5” came in with an abundance fitness of -0.032 ± 0.11.

Take “E3 ubiquitin-protein ligase NEDD4-like H214P, Q96PU5”: the abundance fitness is -0.063 ± 0.077.

“E3 ubiquitin-protein ligase NEDD4-like H214Q, Q96PU5” yielded an abundance fitness of -0.211 ± 0.089.

Substance “E3 ubiquitin-protein ligase NEDD4-like H214R, Q96PU5” gave an abundance fitness of -0.005 ± 0.068.

For the substance “E3 ubiquitin-protein ligase NEDD4-like H214S, Q96PU5”, the abundance fitness was -0.035 ± 0.057.

The substance “E3 ubiquitin-protein ligase NEDD4-like H214T, Q96PU5” had an abundance fitness of -0.062 ± 0.067.

In turn, “E3 ubiquitin-protein ligase NEDD4-like H214V, Q96PU5” displayed an abundance fitness of -0.026 ± 0.058.

Take “E3 ubiquitin-protein ligase NEDD4-like H214W, Q96PU5”: the abundance fitness was -0.068 ± 0.066.

Substance “E3 ubiquitin-protein ligase NEDD4-like H214Y, Q96PU5” had an abundance fitness of 0.035 ± 0.088.

The substance “E3 ubiquitin-protein ligase NEDD4-like H222C, Q96PU5” yielded an abundance fitness of -0.052 ± 0.094.

In the case of “E3 ubiquitin-protein ligase NEDD4-like H222D, Q96PU5”, the abundance fitness worked out at 0.071 ± 0.067.

In the case of “E3 ubiquitin-protein ligase NEDD4-like H222E, Q96PU5”, the abundance fitness was -0.013 ± 0.083.

With “E3 ubiquitin-protein ligase NEDD4-like H222F, Q96PU5”, the abundance fitness was -0.052 ± 0.089.

As for “E3 ubiquitin-protein ligase NEDD4-like H222G, Q96PU5”, the abundance fitness was -0.07 ± 0.06.

As for “E3 ubiquitin-protein ligase NEDD4-like H222I, Q96PU5”, the abundance fitness was -0.251 ± 0.1.

Substance “E3 ubiquitin-protein ligase NEDD4-like H222K, Q96PU5” gave an abundance fitness of 0.251 ± 0.1.

For “E3 ubiquitin-protein ligase NEDD4-like H222L, Q96PU5”, the abundance fitness is -0.088 ± 0.056.

For the substance “E3 ubiquitin-protein ligase NEDD4-like H222M, Q96PU5”, the abundance fitness worked out at 0.173 ± 0.093.

In turn, “E3 ubiquitin-protein ligase NEDD4-like H222N, Q96PU5” yielded an abundance fitness of -0.027 ± 0.11.

Substance “E3 ubiquitin-protein ligase NEDD4-like H222P, Q96PU5” showed an abundance fitness of -0.133 ± 0.063.

The substance “E3 ubiquitin-protein ligase NEDD4-like H222Q, Q96PU5” gave an abundance fitness of -0.022 ± 0.1.

As for “E3 ubiquitin-protein ligase NEDD4-like H222R, Q96PU5”, the abundance fitness was -0.016 ± 0.057.

As to “E3 ubiquitin-protein ligase NEDD4-like H222T, Q96PU5”, the abundance fitness is 0.081 ± 0.076.

Take “E3 ubiquitin-protein ligase NEDD4-like H222V, Q96PU5”: the abundance fitness is -0.045 ± 0.059.

As for “E3 ubiquitin-protein ligase NEDD4-like H222W, Q96PU5”, the abundance fitness was -0.218 ± 0.071.

On to “E3 ubiquitin-protein ligase NEDD4-like H222Y, Q96PU5”, for which the abundance fitness was -0.171 ± 0.11.

Substance “E3 ubiquitin-protein ligase NEDD4-like K202A, Q96PU5” gave an abundance fitness of -0.185 ± 0.06.

The substance “E3 ubiquitin-protein ligase NEDD4-like K202C, Q96PU5” had an abundance fitness of -0.253 ± 0.097.

Substance “E3 ubiquitin-protein ligase NEDD4-like K202D, Q96PU5” came in with an abundance fitness of -0.491 ± 0.064.

In the case of “E3 ubiquitin-protein ligase NEDD4-like K202E, Q96PU5”, the abundance fitness was -0.295 ± 0.095.

As to “E3 ubiquitin-protein ligase NEDD4-like K202F, Q96PU5”, the abundance fitness is -0.49 ± 0.11.

With “E3 ubiquitin-protein ligase NEDD4-like K202G, Q96PU5”, the abundance fitness was -0.482 ± 0.06.

With “E3 ubiquitin-protein ligase NEDD4-like K202H, Q96PU5”, the abundance fitness was -0.173 ± 0.078.

“E3 ubiquitin-protein ligase NEDD4-like K202I, Q96PU5”: the abundance fitness was -0.193 ± 0.13.

“E3 ubiquitin-protein ligase NEDD4-like K202L, Q96PU5” had an abundance fitness of -0.205 ± 0.074.

In turn, “E3 ubiquitin-protein ligase NEDD4-like K202M, Q96PU5” returned an abundance fitness of -0.496 ± 0.1.

Substance “E3 ubiquitin-protein ligase NEDD4-like K202N, Q96PU5” displayed an abundance fitness of -0.01 ± 0.11.

As to “E3 ubiquitin-protein ligase NEDD4-like K202P, Q96PU5”, the abundance fitness is -0.814 ± 0.12.

“E3 ubiquitin-protein ligase NEDD4-like K202Q, Q96PU5” showed an abundance fitness of -0.252 ± 0.096.

For the substance “E3 ubiquitin-protein ligase NEDD4-like K202R, Q96PU5”, the abundance fitness is -0.216 ± 0.062.

In the case of “E3 ubiquitin-protein ligase NEDD4-like K202T, Q96PU5”, the abundance fitness was -0.308 ± 0.083.

For the origin of these results see the Human Domainome abundance scans (Beltran et al. 2025).
